Data from patent publication US20030054360.

Legend:
Test in all cases: filter
Settings in all cases: 5-BrdU replaces T, apparent photocrosslink KD
[1] = target: platelet-derived growth factor (PDGF) (Homo sapiens) (UniProt P01127)
Angiogenin = Angiogenin (UniProt P03950)
[2] = target: T1, P-Selectin (Homo sapiens) (UniProt P16109)
T1 sequence: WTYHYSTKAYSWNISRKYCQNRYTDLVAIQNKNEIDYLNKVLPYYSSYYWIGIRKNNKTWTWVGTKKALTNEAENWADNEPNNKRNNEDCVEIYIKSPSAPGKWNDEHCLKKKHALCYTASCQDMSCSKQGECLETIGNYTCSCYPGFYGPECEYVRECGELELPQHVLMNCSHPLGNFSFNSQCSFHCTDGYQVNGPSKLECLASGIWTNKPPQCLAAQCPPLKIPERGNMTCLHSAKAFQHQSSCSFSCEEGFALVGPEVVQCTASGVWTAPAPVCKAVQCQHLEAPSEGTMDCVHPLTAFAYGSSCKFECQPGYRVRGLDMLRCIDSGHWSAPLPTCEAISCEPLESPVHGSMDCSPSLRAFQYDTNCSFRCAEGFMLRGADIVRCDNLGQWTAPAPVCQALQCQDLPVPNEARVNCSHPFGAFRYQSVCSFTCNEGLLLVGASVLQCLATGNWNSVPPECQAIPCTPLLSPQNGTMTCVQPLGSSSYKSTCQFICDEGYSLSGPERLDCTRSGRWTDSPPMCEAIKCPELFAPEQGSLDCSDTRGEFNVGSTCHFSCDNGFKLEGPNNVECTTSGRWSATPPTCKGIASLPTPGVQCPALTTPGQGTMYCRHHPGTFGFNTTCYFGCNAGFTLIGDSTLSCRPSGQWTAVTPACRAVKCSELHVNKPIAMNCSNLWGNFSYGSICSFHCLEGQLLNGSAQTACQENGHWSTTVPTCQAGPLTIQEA

[3] = target: beta-Nerve Growth Factor (beta-NGF) (UniProt P01138)
Interleukin-4 = target: T2, Interleukin-4 (UniProt P05112)
T2 sequence: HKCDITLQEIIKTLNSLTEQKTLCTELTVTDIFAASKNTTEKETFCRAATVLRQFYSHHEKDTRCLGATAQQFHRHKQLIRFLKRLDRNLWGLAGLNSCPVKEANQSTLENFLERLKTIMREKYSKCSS

[4] = target: Transforming Growth Factor beta1 (TGF-beta1) (UniProt P01137)
Sequence of Transforming Growth Factor beta1 (TGF-beta1) (P01137 279-390): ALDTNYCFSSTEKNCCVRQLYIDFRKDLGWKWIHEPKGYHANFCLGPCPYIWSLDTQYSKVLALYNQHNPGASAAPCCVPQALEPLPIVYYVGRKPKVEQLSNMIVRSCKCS

Sequence of Angiogenin (P03950 25-147): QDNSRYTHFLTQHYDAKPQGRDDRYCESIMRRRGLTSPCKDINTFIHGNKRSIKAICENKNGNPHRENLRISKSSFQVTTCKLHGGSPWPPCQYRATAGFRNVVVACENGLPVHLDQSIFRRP
Sequence of platelet-derived growth factor (PDGF) (Homo sapiens) (P01127 82-190): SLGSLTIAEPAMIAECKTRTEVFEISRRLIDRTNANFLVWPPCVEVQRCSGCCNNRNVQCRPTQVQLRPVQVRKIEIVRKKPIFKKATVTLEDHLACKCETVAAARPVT
Sequence of beta-Nerve Growth Factor (beta-NGF) (P01138 122-241): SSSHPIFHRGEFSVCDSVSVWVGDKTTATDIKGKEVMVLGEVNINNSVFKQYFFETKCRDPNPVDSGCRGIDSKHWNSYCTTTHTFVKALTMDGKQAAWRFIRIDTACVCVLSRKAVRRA

Work on “ATATATATGGGAGGACGATGCGGCAAGGGAAACAGATAGCCCAGGCTCCCCCCCAGACGACGAGCGGGAAAAAAAA [PDGF pool 008 clone 37]” yielded a Kd ([1]; plateau 74%, rate 0.21) of 2.4 nM.
With “ATATATATGGGAGGACGATGCGGCACAAGGAACAAAGCGGCCCCTATCCCCAACAGACGACGAGCGGGAAAAAAAA [PDGF pool 008 clone 31]” the Kd ([1]; plateau 100%, rate 0.19) was 5.3 nM.
“ATATATATGGGAGGACGATGCGGCACCAAAAGGTGGTCTTAGCCTAATTATGGACGTGTCCACCAGACGACGAGCGGGAAAAAAAA [Angiogenin pool 011 clone 27]” showed a Kd (Angiogenin; plateau 37%, rate 0.62) of 0.3 nM.
Work on “ATATATATGGGAGGACGATGCGGCACGAGGGAATCACCTCGAACTTGTCCTGGATTACTGCCCAGACGACGAGCGGGAAAAAAAA [P-selectin pool 014 clone 21]” yielded a Kd ([2]; plateau 31%, rate 0.76) of 9.1 nM.
In the case of “ATATATATGGGAGGACGATGCGGCAGCACCGAGGTACCCAACAGGGATCCGCCCAGACGACGAGCGGGAAAAAAAA [PDGF pool 008 clone 26]”, the Kd ([1]; plateau 67%, rate 0.43) is reported as 1.8 nM.
Sequence “ATATATATGGGAGGACGATGCGGCCATACGCACTTCAGTGGGGATAATCCAACTGGTTTGGTGCAGACGACGAGCGGGAAAAAAAA [P-selectin pool 014 clone 95]” has a Kd ([2]; plateau 39%, rate 1.54, same sequence as SEQ 39) of 45 nM.
Work on “ATATATATGGGAGGACGATGCGGCCATACGCACTTCAGTGGGGATAATCCAACTGGTTTGGTGCAGACGACGAGCGGGAAAAAAAA [beta-NGF pool 031 clone 43]” yielded a Kd ([3]; plateau 38%) of 7.9 nM.
“ATATATATGGGAGGACGATGCGGCCATGAACCCATCCTCTGGTTCATAATCGACGTGTTCGTGCAGACGACGAGCGGGAAAAAAAA [P-selectin pool 014 clone 17]” was tested, and the Kd ([2]; plateau 59%, rate 1.36) was 18 nM.
“ATATATATGGGAGGACGATGCGGCCCCGAGTTTCCCTAAGGTTTGGTTGACCTGTCATTTCAGCAGACGACGAGCGGGAAAAAAAA [IL-4 pool 012 clone 48]” gave a Kd (Interleukin-4; plateau 52%, rate 0.17) of 4.3 nM.
“ATATATATGGGAGGACGATGCGGCCGGACATCCCCCAGGGCAAAACCAACTCCCAGACGACGAGCGGGAAAAAAAA [PDGF pool 008 clone 35]” showed a Kd ([1]; plateau 71%, rate 0.07) of 5.1 nM.
Work on “ATATATATGGGAGGACGATGCGGCGCCCCGATTGACCTTCGATTTATCCTACTTATGGCACCCCAGACGACGAGCGGGAAAAAAAA [P-selectin pool 014 clone 14]” yielded a Kd ([2]; plateau 15%, rate 4) of 0.35 nM.
Sequence “ATATATATGGGAGGACGATGCGGGACCAAATACCAACTTCACATCACCTTTCTTATTCTCCGGCAGACGACGAGCGGGAAAAAAAA [beta-NGF pool 031 clone 44]” has a Kd ([3]; plateau 58%, rate 0.59) of 2.2 nM.
In the case of “ATATATATGGGAGGACGATGCGGGACCAATAACACTACACTGATCATCTCCCTTCTATGTCCCCAGACGACGAGCGGGAAAAAAAA [beta-NGF pool 031 clone 7]”, the Kd ([3]; plateau 55%, rate 0.42) is reported as 2.5 nM.
“ATATATATGGGAGGACGATGCGGGACCATCCAATACCTTCCGTAACACTTTCCTTCTTCCTTCCAGACGACGAGCGGGAAAAAAAA [TGF-beta1 pool 015 clone 81]” showed a Kd ([4]; plateau 80%, rate 0.58) of 7.2 nM.
“ATATATATGGGAGGACGATGCGGGCAAAGTCTTGGTCCACCAAATATGTGATGTCACCACCAGCAGACGACGAGCGGGAAAAAAAA [Angiogenin pool 011 clone 59]” was tested, and the Kd (Angiogenin; plateau 26%, rate 0.52) was 0.22 nM.
For “ATATATATGGGAGGACGATGCGGGCACAACCTTACCACCCTAGCCTACCCCTAACCTCCTGTCCAGACGACGAGCGGGAAAAAAAA [TGF-beta1 pool 015 clone 74]”, the Kd ([4]; plateau 79%, rate 0.34) was 4.9 nM.
“ATATATATGGGAGGACGATGCGGGCACAATCAAGACCTCTCCAAACTTGAACTCTGTCTATCCCAGACGACGAGCGGGAAAAAAAA [TGF-beta1 pool 015 clone 87]” gave a Kd ([4]; plateau 80%, rate 0.5) of 62 nM.
“ATATATATGGGAGGACGATGCGGGCACACTTAAATCCACTTCACCTTACAATTCCTTTATCTGCAGACGACGAGCGGGAAAAAAAA [beta-NGF pool 031 clone 17]” gave a Kd ([3]; plateau 66%, rate 1.2, Table 7 sequence differs slightly from listing) of 0.21 nM.
For “ATATATATGGGAGGACGATGCGGGCACCTACCTGAGCTACATATGACAGTGTCACCCTGGCCCCAGACGACGAGCGGGAAAAAAAA [Angiogenin pool 011 clone 14]”, the Kd (Angiogenin; plateau 34%, rate 1.3) was 0.2 nM.
“ATATATATGGGAGGACGATGCGGGCACTAACTTTACCTCCACCTCTAACCACCCTCCTTTCTGCAGACGACGAGCGGGAAAAAAAA [beta-NGF pool 031 clone 65]” was tested, and the Kd ([3]; plateau 47%, rate 0.94) was 0.2 nM.
“ATATATATGGGAGGACGATGCGGGCCAAATGGACTTTTCGCCACGAACTTACGACGGTGTTGCCAGACGACGAGCGGGAAAAAAAA [Angiogenin pool 011 clone 16]” showed a Kd (Angiogenin; plateau 28%, rate 2.6) of 0.3 nM.
“ATATATATGGGAGGACGATGCGGGCCAACCACGTGGTATTATTGACCTTGCAATGGGAATGCCCAGACGACGAGCGGGAAAAAAAA [Angiogenin pool 011 clone 11]” was tested, and the Kd (Angiogenin; plateau 23%, rate 1.46) was 1.1 nM.
“ATATATATGGGAGGACGATGCGGGCCAACCCCTAGTGAACAACAACACTCCCACAGACGACGAGCGGGAAAAAAAA [PDGF pool 4 clone 87]” was tested, and the Kd ([1]; plateau 36%, rate 0.29) was 2 nM.
In the case of “ATATATATGGGAGGACGATGCGGGCCAAGGACATTCTTGTTCGTTGTTGCTGTCCACTGTCTCCAGACGACGAGCGGGAAAAAAAA [IL-4 pool 012 clone 78]”, the Kd (Interleukin-4; plateau 10%, rate 1.7) is reported as 9.7 nM.
Work on “ATATATATGGGAGGACGATGCGGGCCAAGGTTCCCTTCTGCCTCATTGTTGTGGGAACCCATCCAGACGACGAGCGGGAAAAAAAA [IL-4 pool 012 clone 41]” yielded a Kd (Interleukin-4; plateau 58%, rate 0.54, Table 7 sequence differs slightly from listing) of 61 nM.
Work on “ATATATATGGGAGGACGATGCGGGCCACGTGTATTATCCTCAGCTTATAGCCATGGCATGGACCAGACGACGAGCGGGAAAAAAAA [Angiogenin pool 011 clone 58]” yielded a Kd (Angiogenin; plateau 16%, rate 1.58) of 2.2 nM.
With “ATATATATGGGAGGACGATGCGGGCCCCAAACACTTGTTCCTATCTTTCAACCCCCCTTGATCCAGACGACGAGCGGGAAAAAAAA [beta-NGF pool 031 clone 78]” the Kd ([3]; plateau 94%, rate 0.38) was 31 nM.
For “ATATATATGGGAGGACGATGCGGGCCCTACTTGCATGAATATCCACTCCTAGGCTTGAGGGAGCAGACGACGAGCGGGAAAAAAAA [Angiogenin pool 011 clone 85]”, the Kd (Angiogenin; plateau 31%, rate 3.5) was 0.2 nM.
With “ATATATATGGGAGGACGATGCGGGCCGAAGTCTAAACCTGCTCGTGACTTTCTTTCGATGTTGCAGACGACGAGCGGGAAAAAAAA [IL-4 pool 012 clone 8]” the Kd (Interleukin-4; plateau 40%, rate 1.8) was 39 nM.
With “ATATATATGGGAGGACGATGCGGGCCTACCAACTCCCCTCTAGTCCTGTTCTATCCACGTTGGCAGACGACGAGCGGGAAAAAAAA [IL-4 pool 012 clone 31]” the Kd (Interleukin-4; plateau 49%, rate 0.98) was 21 nM.
“ATATATATGGGAGGACGATGCGGGCGAAGGCACACCGAGTTCATAGTATCCCACAGACGACGAGCGGGAAAAAAAA [PDGF pool 4 clone 64]” was tested, and the Kd ([1]; plateau 53%, rate 0.2) was 4 nM.
With “ATATATATGGGAGGACGATGCGGGCGGAAGAGGCAGGGTACCACGGCAGAGGTCAGACGACGAGCGGGAAAAAAAA [PDGF pool 4 clone 24]” the Kd ([1]; plateau 52%, rate 0.25) was 2 nM.
With “ATATATATGGGAGGACGATGCGGGCGGCAGACGCGCCGGGTACCCCAGGTCCCCAGACGACGAGCGGGAAAAAAAA [PDGF pool 008 clone 27]” the Kd ([1]; plateau 100%, rate 0.34) was 3.2 nM.
Work on “ATATATATGGGAGGACGATGCGGGCTCAATAACCTGAATCTACCTTTCCCTAGCAAAGGTCTGCAGACGACGAGCGGGAAAAAAAA [P-selectin pool 014 clone 24]” yielded a Kd ([2]; plateau 30%, rate 1.86) of 2.1 nM.
Work on “ATATATATGGGAGGACGATGCGGGGCAAACTGCGTCGTATTATAAGCCTCGCTACAGATGCCACAGACGACGAGCGGGAAAAAAAA [Angiogenin pool 011 clone 12]” yielded a Kd (Angiogenin; plateau 31%, rate 0.68) of 0.1 nM.
“ATATATATGGGAGGACGATGCGGGGGGCAAGAAGCACGGTACCCCAGGTCCGCCAGACGACGAGCGGGAAAAAAAA [PDGF pool 008 clone 33]” gave a Kd ([1]; plateau 100%, rate 0.24) of 5.7 nM.
